The assay has as its target T1, ヒト心筋由来トロポニンI (human, UniProt P19429 2-210).
T1 construct: It is not the protein on the chip; also called human cardiac troponin I; cTnI
Kind of assay: SPR (Biacore T100), troponin I on a CM5 chip, scFv as analyte. For orientation: In SPR one partner is held on a chip, and binding of the other changes the refractive index at the surface.

T1 sequence (P19429 2-210 limits assumed): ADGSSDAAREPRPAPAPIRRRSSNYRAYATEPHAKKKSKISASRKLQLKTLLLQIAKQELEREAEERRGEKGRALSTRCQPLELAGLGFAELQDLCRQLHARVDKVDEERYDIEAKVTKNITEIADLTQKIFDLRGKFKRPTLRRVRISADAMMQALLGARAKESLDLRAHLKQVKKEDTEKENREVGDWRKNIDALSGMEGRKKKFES

B1: 野生型scFv抗体フラグメント(配列番号:62) (scFv)
scFv: DVVLTQSPLTLSVTIGQPASISCKSSQSLLDSDGKTYLNWLLQRPGQSPKRLIYLVSKLDSGVPDRFTGSGSGTDFTLKISRVEAEDLGVYYCWQGTHFPLTFGAGTKLEIKRGGGGSGGGGSGGGGSQLQLQQSGAELVRSGASVKLSCTASGFNIKDYYMNWVKQRPEQGLEWIGWIDPANGDTAYAPRFQVKATMTADKSSNTAYLQLSSLTSEDTAVYYCNADLPMDQWGQGTSVTVSSAAALEHHHHHH
notes: also called 野生scFv抗体フラグメント; 野生型scFv抗体フラグメント
As for B1, the binding result is listed as “binds”.

The values are drawn from JP2013172663A (dated 2013).
